Results as given in US8513197B2, “Ganglioside epitopes for treating Guillain-Barre syndrome” (Georgia Regents University, priority 2009, dated 2013).
Where two headings read alike, the source gives them in different places. No end group written: not given here.

How the values were obtained:
LOSGD3-sensitized rats [1] = assay: Rotarod motor test; conditions: LOSGD3/peptide group vs LOSGD3 treatment group, week 17
Protocol: Twelve-week-old female Lewis rats weighing 200-250 g were used. One hundred micrograms LOSGD3 was dissolved in 50 mM PBS buffer with a vehicle of 0.05 ml keyhole limpet hemocyanin (KLH; 2 mg/ml) and emulsified with an equal volume of complete Freund's adjuvant (CFA). Rats were given a single subcutaneous injection of 0.1 ml inoculum (or vehicle) into the shoulders and the footpads of the hind limbs. In addition, booster injections were administered similarly to injections in LOSGD3 (or vehicle)-treated animals at 2-week intervals with 100 μg LOSGD3 (or no additive) and 2 mg/ml KLH in PBS emulsified with an equal volume of incomplete Freund's adjuvant (ICFA) 6 weeks thereafter. Sixteen experimental animals were divided into four groups (n=4 each): 1) LOSGD3, 2) LOSGD3/BEC2, 3) vehicle, and 4) vehicle/BEC2. The remaining animals were included as the untreated control group (n=4). As shown in the third and fourth stepladders of FIG. 2, BEC2 (5 mg kg^−1) was administered to rats once per week from 8 to 15 weeks.
A rat was placed on a rotating roller (4 cm in diameter), and the time for which the rat remained on the roller was measured. The test included eight trials; each trial was performed at an interval of 10 min; four trials were performed. An additional four trials were conducted after 24 hr. When the rat could stay on the rotating rod at a constant speed of 5 rpm for a cumulative duration of at least 2 sec, the rotation speed was increased by 0.2 rpm/sec.
Twelve-week-old female Lewis rats, weighing 200-220 g each, were used. One hundred micrograms of LOSGD3 was dissolved in 50 mM PBS buffer as vehicle, and with 0.05 mL of keyhole limpet hemocyanin (2 mg/mL) emulsified with an equal volume of complete Freund's adjuvant. A single subcutaneous injection of 0.1 mL of inoculum (or vehicle) was made into the rats' shoulders and hind limb footpads. […]

LOSGD3-sensitized rats [2] = assay: Nerve conduction velocity (NCV) in rat tail nerve; conditions: LOSGD3/peptide-treated groups, week 16
Protocol: Twelve-week-old female Lewis rats, weighing 200-220 g each, were used. One hundred micrograms of LOSGD3 was dissolved in 50 mM PBS buffer as vehicle, and with 0.05 mL of keyhole limpet hemocyanin (2 mg/mL) emulsified with an equal volume of complete Freund's adjuvant. A single subcutaneous injection of 0.1 mL of inoculum (or vehicle) was made into the rats' shoulders and hind limb footpads. Additional booster injections were administered similarly to LOSGD3- (or vehicle-) treated animals at 2-week intervals with 100 μg of LOSGD3 (or no additive) and 2 mg/mL of keyhole limpet hemocyanin in PBS emulsified with an equal volume of incomplete Freund's adjuvant after 6 weeks. Forty-four experimental animals were grouped into 10 treatment paradigms (n=4 each): (i) LOSGD3, (ii) LOSGD3/PGD3-3, (iii) LOSGD3/PGD3-4, (iv) LOSGD3/PGD3-5, (v) LOSGD3/PGD3-6, (vi) vehicle, (vii) vehicle/PGD3-3, (viii) vehicle/PGD3-4, (ix) vehicle/PGD3-5, and (x) LOSGD3/PGD3-6. The remaining four animals were the untreated control group (n=4). […]
NCVs (m/s) were measured in the rat tail nerve using a Nicolet VikingQuest EMG machine (NeuroCare Group, Madison, Wis., USA) according to the method described previously (Usuki et al., 2006. J. Neurosci. Res. 83:274-284).

[3] = test system: anti-GD3 antibody and anti-LOSGD3 antibody; assay: Time course of serum anti-GD3 and anti-LOSGD3 antibody (ELISA) in immunized rats; format: in vivo, Lewis rats; conditions: peptide 1000 nmol/kg i.p. daily, from weeks 8, 11 and 14
Protocol: (§1) Antiganglioside antibody activity was evaluated for GM1, GM2, GD1a, GD1b, GT1b, GQ1b, GD3, and LOSGD3 by conventional ELISA method (Usuki et al., 2005. J Neurol Sci 232: 37-44). […] Before the ELISA plate assay, each well was treated with 1% BSA/PBS solution. […] After incubation, the reaction mixture was passed through a 0.22-μm syringe filter (Millipore Corp., Bedford, Mass.). Subsequently, 100 μl of the mixture was added to each well and incubated for 1 hr at room temperature. To each of the wells, a secondary antibody (horseradish peroxidase-conjugated anti-mouse IgG, 1:5,000 dilution in 1% BSA/PBS solution) was added and incubated for 1 hr at room temperature. Finally, the bound secondary antibody was visualized by addition of a color-generating reagent (OPD Peroxidase Substrate). The absorbance was measured at 492 nm with a microplate spectrophotometer (Bio-Rad, Hemel Hempstead, United Kingdom). The nomenclature of gangliosides is based on that of Svennerholm (Svennerholm, 1964. J Lipid Res 5: 145-155).
Anti-ganglioside antibody activity was evaluated for GM1, GM2, GD1a, GD1b, GT1b, GQ1b, GD3, and LOSGD3 by conventional ELISA as previously described (Usuki et al., 2005. J. Neurol. Sci. 232:37-44). To measure half-maximal inhibitory concentrations (IC50s) of GD3-like peptides for binding of GD3 to mAb R24, each well of the ELISA plate (Immunlon 1B, Lab System, Franklin, Mass., USA) was coated with 0.1 μg of GD3, and prior to ELISA assay was treated by 1% BSA/PBS solution. The purified mAb R24 IgG (10 μg/mL by 1% BSA/PBS solution) was incubated with various concentrations of GD3-like peptides (PGD3-1, PGD3-2, PGD3-3, PGD3-4, PGD3-5, and PGD3-6) for 30 min. After incubation, the reaction mixture was passed through a 0.22-μm syringe filter (Millipore Corp., Bedford, Mass., USA), and 100 μL of the mixture was added to each well and incubated for 1 h at room temperature. […] The absorbance was measured at 492 nm with a microplate spectrophotometer (BioRad, Hemel Hempstead, UK).

mAb R24 = assay: Competitive inhibition ELISA: binding of mAb R24 to GD3-coated plate
Protocol: Subsequently, an aliquot (100 μl) was added to each well, and each well of the ELISA plate was coated with 0.1 μg GD3. The remaining binding activity of mAb R24 was determined by ELISA. Values are means±SD, n=6 individual experiments. […] The experiment at each dose was performed on three rats, and values are means±SD.
as §1
FIG. 8 illustrates the effect of GD3-like peptides on binding of R24 mAb to GD3 by ELISA. Each of the GD3-peptide mimics in solution (PGD3-1, PGD3-2, PGD3-3, PGD3-4, PGD3-5, or PGD3-6) was incubated with R24 mAb for 30 min at room temperature at various concentrations as indicated in the horizontal axis. An aliquot of the mixtures (100 μL), was added to each well of an ELISA plate coated with 0.1 μg of GD3. The remaining binding activity of R24 mAb was measured by ELISA. Values are mean±SEM, n=6 individual experiments.
Anti-ganglioside antibody activity was evaluated for GM1, GM2, GD1a, GD1b, GT1b, GQ1b, GD3, and LOSGD3 by conventional ELISA as previously described (Usuki et al., 2005. J. Neurol. Sci. 232:37-44). To measure half-maximal inhibitory concentrations (IC50s) of GD3-like peptides for binding of GD3 to mAb R24, each well of the ELISA plate (Immunlon 1B, Lab System, Franklin, Mass., USA) was coated with 0.1 μg of GD3, and prior to ELISA assay was treated by 1% BSA/PBS solution. The purified mAb R24 IgG (10 μg/mL by 1% BSA/PBS solution) was incubated with various concentrations of GD3-like peptides (PGD3-1, PGD3-2, PGD3-3, PGD3-4, PGD3-5, and PGD3-6) for 30 min. After incubation, the reaction mixture was passed through a 0.22-μm syringe filter (Millipore Corp., Bedford, Mass., USA), and 100 μL of the mixture was added to each well and incubated for 1 h at room temperature. A secondary antibody (horseradish peroxidase-conjugated anti-mouse IgG, 1:5000 dilution in 1% BSA/PBS solution) was applied, incubated for 1 h at room temperature, and visualized by addition of a color-generating reagent (OPD Peroxidase Substrate). The absorbance was measured at 492 nm with a microplate spectrophotometer (BioRad, Hemel Hempstead, UK).

[4] = Pharmacokinetic study of bPGD3-4 after i.p. single dose (streptavidin-coated ELISA of plasma); conditions: for tmax: normal Lewis rats
Protocol: Briefly, the plasma samples from the single-dose administration of bPGD3-4 were applied to the streptavidin-coated ELISA plates at serial double dilutions in 1% bovine serum albumin/phosphate buffered-saline (BSA/PBS) solution. […] After washing with 1% BSA/PBS buffer, each well was treated with an anti-mouse IgG horseradish peroxidase-conjugated antibody (Jackson ImmunoResearch Lab, West Grove, Pa., USA). This secondary antibody was pre-treated with rat IgG to eliminate contamination from any anti-rat IgG binding activity. Finally, the bound secondary antibody was visualized by a color-generating reagent (OPD Peroxidase Substrate in PBS; Sigma, St Louis, Mo., USA). Half-saturation absorbance values for plasma samples were estimated by serial plasma dilution curves of ELISA. The absorbances were then converted into values of plasma concentration using a standard serial dilution curve of rat serum containing authentic bPGD3-4.
A Micro-Renathane polyurethane cannula, 0.84 mm o.d.×0.36 mm i.d., (Braintree Scientific Inc., Braintree, Mass.) was inserted before dosing into the femoral vein of a female Lewis rat (n=9; body weight=200±20 g). […] Blood samples were centrifuged at room temperature and the plasma harvested. The plasma samples were stored at −60° C. to −80° C. until analyzed by a streptavidin-coated ELISA plate for determining the total concentration of bPGD3-4.
The following parameters were calculated: maximum-, minimum-, and average-observed plasma concentration (Cmax, Cmin, and Cav), areas under the plasma concentration-time curve from zero to infinite time (AUC) plasma clearance (CL), distribution half-life (t1/2α), and elimination half-life (t1/2β).

[5] = as restated in Example 12, read-out: IC50 values for the active peptides
[6] = simulated, 1,000 nmol kg^−1 i.p. at 24-hourly intervals for 7 days
[7] = i.p. single dose 100.0 nmol kg^−1, mean (SD)
[8] = i.p. single dose 500.0 nmol kg^−1, mean (SD)
[9] = i.p. single dose 1000.0 nmol kg^−1, mean (SD)

In the case of ACTPYAMLPGCK [PGD3-5, GD3-like peptide], the “rotarod retention time / motor performance” value (LOSGD3-sensitized rats [1]) is reported as “did not show any statistically significant differences”, the “effect on NCV” value (LOSGD3-sensitized rats [2]) is reported as “less attenuation of NCV” and the “effect on serum anti-GD3 / anti-LOSGD3 antibody level” value [3] is reported as “effective in suppressing serum anti-GD3 antibody activity”. For the same substance, the “inhibitory activity on GD3 reactivity to mAb R24” value (shortened to “inhibitory activity”) (mAb R24; ELISA) was “remarkable inhibitory activities”, the IC50 (mAb R24; [5]) was 100 nM and the IC50 (mAb R24; read-out: IC50, competitive inhibition of GD3 reactivity to mAb R24, ELISA, 0.1 μg GD3 per well, as printed in Example 11) was 100 nM.

In the case of RHAYRSMAEWGFLYS [PGD3-4], the Cmax ([4]; read-out: Cmax, chronic simulation, simulated, 1,000 nmol kg^−1 i.p. at 24-hourly intervals for 7 days) is reported as 670 µM, the “Cav, chronic simulation” value [4, 6] is reported as 340 µM and the “Cmin, chronic simulation” value [4, 6] is reported as 0.33 µM.

In the case of “LAPPRPRSELVFLSV [PGD3-1, GD3-like peptide]”, the “inhibitory activity” value (mAb R24; ELISA) is reported as “little or no inhibitory activity”.

In the case of “PHFDSLLYPCELLGC [PGD3-2, GD3-like peptide]”, the “inhibitory activity” value (mAb R24; ELISA) is reported as “little or no inhibitory activity”.

For “GLAPPDYAERFFLIS [PGD3-3, GD3-like peptide]”, the “rotarod retention time / motor performance” value (LOSGD3-sensitized rats [1]) was “did not show any statistically significant differences”, the “effect on serum anti-GD3 / anti-LOSGD3 antibody level” value [3] was “no suppression of either anti-LOSGD3 or anti-GD3 antibodies” and the “inhibitory activity” value (mAb R24; ELISA) was “remarkable inhibitory activities”. It also gave an IC50 (mAb R24; [5]) of 300 nM.

In the case of “bPGD3-4: biotinylated product of GD3-like peptide PGD3-4 (RHAYRSMAEWGFLYS; also: biotinylated, site not given here)”, the “AUC (zero to infinite time)” value [4, 7] is reported as 130.0 (43.6) nmol mL^−1 hr, the “CL (plasma clearance)” value [4, 7] is reported as 0.82 (0.24) mL hr^−1 and the Cmax [4, 7] is reported as 70.8 µM. The “t1/2α (distribution half-life)” value [4, 7] was 0.48 (0.03) hr, the “t1/2β (elimination half-life)” value [4, 7] was 2.45 (0.27) hr and the “AUC (zero to infinite time)” value [4, 8] was 589.2 (72.9) nmol mL^−1 hr. For the same substance, the “CL (plasma clearance)” value [4, 8] was 0.86 (0.11) mL hr^−1, the Cmax [4, 8] was 267 µM and the “t1/2α (distribution half-life)” value [4, 8] was 0.42 (0.03) hr. For the same substance, the “t1/2β (elimination half-life)” value [4, 8] was 2.45 (0.33) hr, the “AUC (zero to infinite time)” value [4, 9] was 1425.7 (78.8) nmol mL^−1 hr and the “CL (plasma clearance)” value [4, 9] was 0.71 (0.04) mL hr^−1. The Cmax [4, 9] was 667 µM, the “t1/2α (distribution half-life)” value [4, 9] was 0.46 (0.03) hr and the “t1/2β (elimination half-life)” value [4, 9] was 2.76 (0.42) hr. The tmax ([4]; i.p. single dose 100.0 nmol kg^−1, n = 3) was 30 min, the tmax ([4]; i.p. single dose 500.0 nmol kg^−1, n = 3) was 30 min and the tmax ([4]; i.p. single dose 1000.0 nmol kg^−1, n = 3) was 30 min. For the same substance, the “death or toxicity after peptide administration” value ([4]; rats, i.p. single dose of 100, 500 and 1,000 nmol kg^−1) was “None of the experimental rats died or exhibited toxicity” and the linearity of pharmacokinetics ([4]; single-dose range 100-1000 nmol kg^−1) was “linear pharmacokinetics”.

In the case of “SVAVPPPADDPSWRY [PGD3-6, GD3-like peptide]”, the “rotarod retention time / motor performance” value (LOSGD3-sensitized rats [1]) is reported as “did not show any statistically significant differences”, the “effect on serum anti-GD3 / anti-LOSGD3 antibody level” value [3] is reported as “no suppression of either anti-LOSGD3 or anti-GD3 antibodies” and the “inhibitory activity” value (mAb R24; ELISA) is reported as “remarkable inhibitory activities”. For the same substance, the IC50 (mAb R24; [5]) was 250 nM.
